Test [1] deals with T1, human C5a (human, UniProt P01031 678-751, biotinylated in the U937/C5aR ligand blocking assay (site not stated)).
T1 sequence: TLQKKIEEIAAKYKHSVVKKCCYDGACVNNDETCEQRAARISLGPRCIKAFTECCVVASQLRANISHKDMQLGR
Put plainly: cell-based or functional assay.

Test [2] concerns the target T2, human C5 (human, UniProt P01031 19-673; P01031 678-1676, limits assumed).
T2 construct: In the sheep RBC lysis assay, C5 is the C5 of normal human serum; also called huC5
The test is described as follows: BLI (Gator), antibody on anti-human IgG Fc probes, 40 nM human C5 bound 600 s at pH 7.4, 600 s dissociation at pH 7.4. The method, then: (§1) pH dependency of the humanized anti-C5a constructs were tested using C5 binding assays. A Biolayer interferometry instrument, Gator™ (Probe life Inc., USA) was used to determine pH dependent dissociation of histidine mutants and the benchmark antibodies. Briefly, anti-human IgG Fc (FHC) Probes were equilibrated in the kinetic (K) buffer of Phosphate-buffered saline containing 0.02% bovine serum albumin and 0.002% Tween20 pH 7.4. Antibodies were captured onto the sensors by dipping them into 200 μL of transfection supernatant for 600 s at pH 7.4. The biosensors were then incubated with human C5 prepared in the K buffer pH 7.4 (40 nM) for 600s followed by 600-second dissociation period in K Buffer, pH 7.4 or pH 5.8. The data were processed and analyzed by the Gator evaluation software.

For test [3], the target named is T2, human C5. Put plainly: ELISA, affinity for human C5 against affinity for human C5a.
The target in test [4] is T2, human C5. The test is described as follows: ELISA, antibody titrated on C5-coated plate. From the text:
The anti-C5a constructs were further tested for their affinities to human C5 using ELISA. Off-target C5 binding reduces availability of anti-C5a antibodies (C5-mediated “sink effect”). […] Each data point was the mean of 2 replicates.

For test [5], the target named is T1, human C5a. The test is described as follows: ligand blocking, flow cytometry: antibody titrated against 20 nM biotinylated human C5a binding to U937/C5aR cells, Experiment #2. The method, then:
(§2) U937/C5aR cells were washed twice by PBS and suspended in assay buffer (PBS+0.1% BSA) at the density of 3×10⁶ cells/ml. […] 1000 rpm centrifuge for 3-5 min at 4° C., remove supernatant and cells were washed by pre-cold PBS twice. Add 100 μl FITC conjugated streptavidin (eBioscience) to cells and incubate on ice for another 30 min. Centrifuge at 4° C., remove supernatant and cells were washed by pre-cold PBS twice. Add 150 μl 0.5% PFA to suspend cells and detect the signal by FACS (Beckman, Cytoflex). IC₅₀ value was calculated by GraphPad Prism software.
(§3) Mean fluorescence intensities were measured at each antibody concentration. U937 cells without addition of antibodies was used as the low control.

Test [6] addresses T2, human C5. The test is described as follows: BLI (Gator), percentage dissociation from human C5 at pH 5.8 over pH 7.4. The method, then:
as §1

The target of test [7] is T1, human C5a. The test is described as follows: cell-based or functional assay. This is another data set of the same source.
In test [8] the target is T1, human C5a. Put plainly: ELISA, antibody titrated on C5a-coated plate.
The target of test [9] is T2, human C5. The test is described as follows: BLI (Gator), antibody on anti-human IgG Fc probes, 40 nM human C5 bound 600 s at pH 7.4, 600 s dissociation at pH 5.8. The method, then: as §1
In test [10] the target is T1, human C5a. Put plainly: ligand blocking, flow cytometry: antibody titrated against 20 nM biotinylated human C5a binding to U937/C5aR cells, Experiment #1. The method, then: as §2, §3
Test [11] addresses T1, human C5a. Put plainly: SPR, scFv captured via anti-c-myc/anti-His, 5 nM human antigen as analyte, 1:1 fit.
Test [12] concerns the target T3, cynomolgus antigen (cynomolgus).
T3 construct: also called cyno antigen; cynomolgus monkey C5a
Put plainly: SPR, scFv captured via anti-c-myc/anti-His, 60 nM cynomolgus antigen as analyte, 1:1 fit. The method, then:
The activator was prepared by mixing 400 mM EDC (1-ethyl-3-(3-dimethylaminopropyl) carbodiimide) and 100 mM NHS (N-hydroxysuccinimide) (GE) immediately prior to injection. The CMS sensor chip was activated for 600 s with the mixture at a flow rate of 10 μL/min. Mixture of anti-c-myc and anti his antibodies in 10 mM NaAc (pH 4.5) was then injected to Fc1 and Fc2 of channel 1 to channel 8 for 600 seconds at a flow rate of 10 μL/min. The chip was deactivated by 1 M ethanolamine-HCl (GE) at a flow rate of 10 μL/min for 420 seconds.
The anti-C5a scFv was diluted to 0.5 μg/ml, the other samples were diluted to 2 μg/ml in running buffer 1×HBS-EP+ (0.01 M HEPES, 0.15 M NaCl, 0.003 M EDTA, 0.05% surfactant P20). […] Diluted TES buffer was injected into channel Fc1 at a flow rate of 10 μL/min for 40 s, diluted scFv was injected into channel Fc2 at a flow rate of 10 μL/min for 40 s. […] 10 mM glycine pH 1.5 as regeneration buffer was injected following every dissociation phase. The chip was regenerated with 10 mM glycine pH 1.5.
The sensorgrams for reference channel Fc1 and buffer channel were subtracted from the test sensorgrams. Data were fitted by 1:1 kinetic binding model. Molecular weight of 8.4 kDa was used to calculate the molar concentration of the cyno antigen.

Test [13] has as its target T3, cynomolgus antigen. Put plainly: SPR, scFv captured, cynomolgus antigen as analyte.

B1: E54H (humanized anti-C5a IgG4 antibody) (antibody, V domains shown)
VH: QVQLVQSGAEVKKPGSSVKVSCKASGYTHTDHIIHWMRQAPGQGLEWMGYIYPRHGWTNYNENFKGRVTITADKSTSTAYMELSSLRSEDTAVYYCARERNLEYFDYWGQGTTVTVSS
VL: DIVLTQSPASLAVSPGQRATITCKASQSVDYEGFNYMNWYQQKPGQPPKLLIYAASNLDSGVPARFSGSGSGTDFTLTINPVEAEDTANYYCQQSNEDPHTFGGGTKVEIKR
notes: Carries F29H and E54H in VH and Y96H in VL (Kabat) relative to 16D10
Consider B1, for which the “Inhibition of calcium influx IC50 (nM), FLIPR, Experiment #1” value with human C5a [1] stood at 0.136 nM. Also, the “Inhibition of calcium influx IC50 (nM), FLIPR, Experiment #2” value with human C5a [1] came out at 0.154 nM. In addition, in the test with human C5 [2], the “Dissociation pH 7.4 (%)” value stood at 5.39%. The “Fold affinity (C5/C5a)” value with human C5 [3] was 5.6 fold. Besides, the “affinity determined by ELISA, huC5” value with human C5 [4] worked out at 0.0601 nM. Moreover, the IC50 in the test with human C5a [5] was 6.53 nM; with human C5a [10] it was 2.57 nM. In addition, the “Ratio between dissociation at pH 5.8 and 7.4” value (from here on “Ratio between dissociation”) with human C5 [6] came to 11.3. The “Inhibition of cell migration IC50 (nM), U937-C5aR cells” value (“Inhibition of cell migration IC50 (nM)” below) in the test with human C5a [7] was 0.076 nM. For the same molecule, the “affinity determined by ELISA, huC5a” value with human C5a [8] amounted to 0.336 nM. The “Dissociation pH 5.8 (%)” value with human C5 [9] was determined as 60.8%.

B2: NM2 (scFv, V domains shown)
VH: QVQLVQSGAEVKKPGSSVKVSCKASGYTFTDHIIHWMRQAPGQGLEWMGYIYPREGNTNYNENFKGRVTITADKSTSTAYMELSSLRSEDTAVYYCARERNLEYFDYWGQGTTVTVSS
VL: DIVLTQSPASLAVSPGQRATITCKASQSVDYEGDNYMNWYQQKPGQPPKLLIYAASNLDSGVPARFSGSGSGTDFTLTINPVEAEDTANYYCQQSNEDPHTFGGGTKVEIK
notes: scFv expressed in E. coli BL21 (periplasmic extract)
Take B2: in the test with human C5a [11], the koff is 0.000736 s⁻¹. For the same molecule, the koff in the test with cynomolgus antigen [12] is 0.0783 s⁻¹. In the test with cynomolgus antigen [13], the Kd was 190 nM, the koff stood at 0.133 s⁻¹ and the kon was found to be 702000 M⁻¹ s⁻¹.

B3: N92H (humanized anti-C5a IgG4 antibody) (antibody, V domains shown)
VH: QVQLVQSGAEVKKPGSSVKVSCKASGYTHTDHIIHWMRQAPGQGLEWMGYIYPREGWTNYNENFKGRVTITADKSTSTAYMELSSLRSEDTAVYYCARERNLEYFDYWGQGTTVTVSS
VL: DIVLTQSPASLAVSPGQRATITCKASQSVDYEGFNYMNWYQQKPGQPPKLLIYAASNLDSGVPARFSGSGSGTDFTLTINPVEAEDTANYYCQQSHEDPHTFGGGTKVEIKR
notes: Carries F29H in VH and N92H and Y96H in VL (Kabat); also called N92H antibody
Regarding B3, in the test with human C5a [1], the “Inhibition of calcium influx IC50 (nM), FLIPR, Experiment #1” value came out at 0.078 nM and the “Inhibition of calcium influx IC50 (nM), FLIPR, Experiment #2” value turned out to be 0.145 nM. In addition, the “Dissociation pH 7.4 (%)” value with human C5 [2] worked out at 8.29%. The “Fold affinity (C5/C5a)” value with human C5 [3] amounted to 3.9 fold. Also, the “affinity determined by ELISA, huC5” value with human C5 [4] was determined as 0.12 nM. The same molecule returned an IC50 with human C5a [5] of 6.23 nM. For the same molecule, in the test with human C5 [6], the “Ratio between dissociation” value was 6.54. In addition, in the test with human C5a [7], the “Inhibition of cell migration IC50 (nM)” value amounted to 0.099 nM. Also, the “affinity determined by ELISA, huC5a” value with human C5a [8] stood at 0.468 nM. For the same molecule, the “Dissociation pH 5.8 (%)” value with human C5 [9] was determined as 54.2%. Moreover, in the test with human C5a [10], the IC50 was found to be 3.68 nM.

B4: N97H (humanized anti-C5a IgG4 antibody) (antibody, V domains shown)
VH: QVQLVQSGAEVKKPGSSVKVSCKASGYTHTDHIIHWMRQAPGQGLEWMGYIYPREGWTNYNENFKGRVTITADKSTSTAYMELSSLRSEDTAVYYCARERHLEYFDYWGQGTTVTVSS
VL: DIVLTQSPASLAVSPGQRATITCKASQSVDYEGFNYMNWYQQKPGQPPKLLIYAASNLDSGVPARFSGSGSGTDFTLTINPVEAEDTANYYCQQSNEDPHTFGGGTKVEIKR
notes: Carries F29H and N97H in VH and Y96H in VL (Kabat)
B4: in the test with human C5a [1], the “Inhibition of calcium influx IC50 (nM), FLIPR, Experiment #1” value was 0.072 nM and the “Inhibition of calcium influx IC50 (nM), FLIPR, Experiment #2” value was determined as 0.138 nM. Further, the “Dissociation pH 7.4 (%)” value with human C5 [2] was 4.49%. The “Fold affinity (C5/C5a)” value with human C5 [3] was 6 fold. Besides, in the test with human C5 [4], the “affinity determined by ELISA, huC5” value turned out to be 0.0682 nM. The molecule further returned an IC50 with human C5a [5] of 5.96 nM. Also, the “Ratio between dissociation” value in the test with human C5 [6] is 10.9. In the test with human C5a [7], the “Inhibition of cell migration IC50 (nM)” value turned out to be 0.07 nM. In addition, the “affinity determined by ELISA, huC5a” value in the test with human C5a [8] was 0.408 nM. Further, in the test with human C5 [9], the “Dissociation pH 5.8 (%)” value was determined as 49%. Also, the IC50 with human C5a [10] was 4.71 nM.

B5: 16D10 (humanized anti-C5a IgG4 antibody) (antibody, V domains shown)
VH: QVQLVQSGAEVKKPGSSVKVSCKASGYTFTDHIIHWMRQAPGQGLEWMGYIYPREGWTNYNENFKGRVTITADKSTSTAYMELSSLRSEDTAVYYCARERNLEYFDYWGQGTTVTVSS
VL: DIVLTQSPASLAVSPGQRATITCKASQSVDYEGFNYMNWYQQKPGQPPKLLIYAASNLDSGVPARFSGSGSGTDFTLTINPVEAEDTANYYCQQSNEDPYTFGGGTKVEIKR
notes: also called WT (16D10); WT
In the case of B5, the “Inhibition of calcium influx IC50 (nM), FLIPR, Experiment #1” value with human C5a [1] came to 0.106 nM. Besides, in the test with human C5a [1], the “Inhibition of calcium influx IC50 (nM), FLIPR, Experiment #2” value was determined as 0.135 nM. Besides, the “Dissociation pH 7.4 (%)” value with human C5 [2] was determined as 1.16%. The “Fold affinity (C5/C5a)” value with human C5 [3] is 9.3 fold. The “affinity determined by ELISA, huC5” value with human C5 [4] is 0.0288 nM. Also, the IC50 in the test with human C5a [5] was determined as 5.9 nM; in the test with human C5a [10], 2.03 nM. The “Ratio between dissociation” value with human C5 [6] is -2.09. Also, the “Inhibition of cell migration IC50 (nM)” value in the test with human C5a [7] is 0.061 nM. Also, the “affinity determined by ELISA, huC5a” value with human C5a [8] was 0.269 nM. Besides, the “Dissociation pH 5.8 (%)” value in the test with human C5 [9] was -2.42%.

These data come from US20240376189A1 (University of Pennsylvania, published 2024).
